Here are results for 3 molecules from article PMC12355267, “Human Helicase DDX5 is Hijacked by SARS-CoV‑2 Nsp13 Helicase to Enhance RNA Unwinding” (ACS Omega, 2025).

As a reminder, the IC50 is the concentration at which inhibition is half-maximal. Low values mean greater potency in that assay, high ones weaker potency in that assay. As usually defined, the Kd is the free concentration of one partner at which half of the binding sites on the other are occupied at equilibrium, for simple one-to-one binding. A lower Kd goes with a tighter complex.

Experiment [1] concerns the target T1, SARS-CoV-2 Nsp13 helicase (SARS-CoV-2, UniProt P0DTD1 5325-5925).
T1 construct: also called Nsp13 helicase of SARS-CoV-2
Description: MST. As to conditions: both partners purified.

Experiment [2] deals with T1, SARS-CoV-2 Nsp13 helicase. To be noted: both partners purified.

B1: full-length DDX5 (flDDX5) (enzyme, human, UniProt P17844 1-614, looked up)
chain: MSGYSSDRDRGRDRGFGAPRFGGSRAGPLSGKKFGNPGEKLVKKKWNLDELPKFEKNFYQEHPDLARRTAQEVETYRRSKEITVRGHNCPKPVLNFYEANFPANVMDVIARQNFTEPTAIQAQGWPVALSGLDMVGVAQTGSGKTLSYLLPAIVHINHQPFLERGDGPICLVLAPTRELAQQVQQVAAEYCRACRLKSTCIYGGAPKGPQIRDLERGVEICIATPGRLIDFLECGKTNLRRTTYLVLDEADRMLDMGFEPQIRKIVDQIRPDRQTLMWSATWPKEVRQLAEDFLKDYIHINIGALELSANHNILQIVDVCHDVEKDEKLIRLMEEIMSEKENKTIVFVETKRRCDELTRKMRRDGWPAMGIHGDKSQQERDWVLNEFKHGKAPILIATDVASRGLDVEDVKFVINYDYPNSSEDYIHRIGRTARSTKTGTAYTFFTPNNIKQVSDLISVLREANQAINPKLLQLVEDRGSGRSRGRGGMKDDRRDRYSAGKRGGFNTFRDRENYDRGYSSLLKRDFGAKTQNGVYSAANYTNGSFGSNFVSAGIQTSFRTGNPTGTYQNGYDSTQQYGSNVPNMHNGMNQQAYAYPATAAAPMIGYPMPTGYSQ
notes: human DEAD-box helicase DDX5, native full-length gene in pET30a, 614 residues (1-614); also called full-length DDX5 (1–614); unlabeled flDDX5
B1 registered a 50% inhibitory concentration (IC50) in experiment [1] of 0.325 µM.

B2: RecA1 domain of DDX5 (1–303) (domain or fragment, human, UniProt P17844 1-303, looked up)
chain: MSGYSSDRDRGRDRGFGAPRFGGSRAGPLSGKKFGNPGEKLVKKKWNLDELPKFEKNFYQEHPDLARRTAQEVETYRRSKEITVRGHNCPKPVLNFYEANFPANVMDVIARQNFTEPTAIQAQGWPVALSGLDMVGVAQTGSGKTLSYLLPAIVHINHQPFLERGDGPICLVLAPTRELAQQVQQVAAEYCRACRLKSTCIYGGAPKGPQIRDLERGVEICIATPGRLIDFLECGKTNLRRTTYLVLDEADRMLDMGFEPQIRKIVDQIRPDRQTLMWSATWPKEVRQLAEDFLKDYIHINIG
notes: human DDX5, RecA1 domain with the N-terminal region, residues 1-303; probably as DDX5ΔC (pETM-13, His-tag), surmised; source: E. coli (cloned from the gene optimized for E. coli expression), purified
For the molecule B2, the IC50 in experiment [1] came to 16.2 µM.

B3: labeled RecA1 domain of DDX5 (domain or fragment, human, UniProt P17844 1-303, looked up)
chain: MSGYSSDRDRGRDRGFGAPRFGGSRAGPLSGKKFGNPGEKLVKKKWNLDELPKFEKNFYQEHPDLARRTAQEVETYRRSKEITVRGHNCPKPVLNFYEANFPANVMDVIARQNFTEPTAIQAQGWPVALSGLDMVGVAQTGSGKTLSYLLPAIVHINHQPFLERGDGPICLVLAPTRELAQQVQQVAAEYCRACRLKSTCIYGGAPKGPQIRDLERGVEICIATPGRLIDFLECGKTNLRRTTYLVLDEADRMLDMGFEPQIRKIVDQIRPDRQTLMWSATWPKEVRQLAEDFLKDYIHINIG
modifications: fluorescent label (dye and site not stated)
notes: human DDX5, RecA1 domain with the N-terminal region, residues 1-303; also called fluorescent RecA1; source: E. coli (cloned from the gene optimized for E. coli expression), purified, then labeled
For the molecule B3, the dissociation constant (Kd) in experiment [2] is 9.1 ± 1.3 µM.
